Positions count from the first letter of the chain named.
T1: Ax1 protein, extracellular domain (human, UniProt P30530 26-451)
T1 construct: extracellular domain; also called Axl; Ark
T1 sequence (looked up): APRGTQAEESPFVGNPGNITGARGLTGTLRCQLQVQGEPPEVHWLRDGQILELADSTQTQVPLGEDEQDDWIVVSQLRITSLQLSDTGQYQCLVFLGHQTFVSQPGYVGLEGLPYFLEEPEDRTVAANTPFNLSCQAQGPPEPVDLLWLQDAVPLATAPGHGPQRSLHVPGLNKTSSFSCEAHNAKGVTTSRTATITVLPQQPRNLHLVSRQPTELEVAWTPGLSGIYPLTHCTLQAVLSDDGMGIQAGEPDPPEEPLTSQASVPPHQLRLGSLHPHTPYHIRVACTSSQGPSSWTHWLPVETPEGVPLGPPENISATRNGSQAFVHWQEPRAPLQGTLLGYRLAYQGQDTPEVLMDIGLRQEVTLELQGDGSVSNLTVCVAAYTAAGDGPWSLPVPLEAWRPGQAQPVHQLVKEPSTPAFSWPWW

B1: HC-E102L (antibody, V domains shown)
VH: EVQLVQSGAEVKKPGATVKISCKVSGYSFTGHTMNWIRQPPGKGLEWIGLIKPSNGGTSYNQKFKGRVTISADKSISTAYLQWSSLKASDTAMYYCAHGHYLSYFAMDYWGQGTLVTVSS
VL: DIQMTQSPSSLSASVGDRVTITCKASQDVSSAVAWYQQKPGQAPRLLIYWASTRHTGVPSRFSGSGSGTEFTLTISSLQPDDFATYYCQEHFSTPLTFGQGTKVEIK
notes: CPE single point mutant
B2: HC-E102Y (antibody, V domains shown)
VH: B1 VH with L102Y
VL: B1 VL
notes: CPE single point mutant
B3: HC-B102I (antibody, V domains shown)
VH: B1 VH with L102I
VL: B1 VL
notes: CPE single point mutant; printed B102, read as E102 (other rows print HC-E102x)
B4: HC-E102V (antibody, V domains shown)
VH: B1 VH with L102V
VL: B1 VL
notes: CPE single point mutant
B5: HC-F105N (antibody, V domains shown)
VH: B1 VH with L102E, F105N
VL: B1 VL
notes: CPE single point mutant
B6: HC-A106L (antibody, V domains shown)
VH: B1 VH with L102E, A106L
VL: B1 VL
notes: CPE single point mutant
B7: HC-B102F (antibody, V domains shown)
VH: B1 VH with L102F
VL: B1 VL
notes: as for B3
B8: HC-M107E (antibody, V domains shown)
VH: B1 VH with L102E, M107E
VL: B1 VL
notes: CPE single point mutant
B9: HC-F105T (antibody, V domains shown)
VH: B1 VH with L102E, F105T
VL: B1 VL
notes: CPE single point mutant
B10: HC-F105S (antibody, V domains shown)
VH: B1 VH with L102E, F105S
VL: B1 VL
notes: CPE single point mutant
B11: HC-F105V (antibody, V domains shown)
VH: B1 VH with L102E, F105V
VL: B1 VL
notes: CPE single point mutant
B12: HC-A106G (antibody, V domains shown)
VH: B1 VH with L102E, A106G
VL: B1 VL
notes: CPE single point mutant
B13: HC-S059I (antibody, V domains shown)
VH: B1 VH with S59I, L102E
VL: B1 VL
notes: CPE single point mutant
B14: HC-S059T (antibody, V domains shown)
VH: B1 VH with S59T, L102E
VL: B1 VL
notes: CPE single point mutant
B15: HC-A106D (antibody, V domains shown)
VH: B1 VH with L102E, A106D
VL: B1 VL
notes: CPE single point mutant
B16: HC-M107F (antibody, V domains shown)
VH: B1 VH with L102E, M107F
VL: B1 VL
notes: CPE single point mutant
B17: HC-H100P (antibody, V domains shown)
VH: B1 VH with H100P, L102E
VL: B1 VL
notes: CPE single point mutant
B18: HC-E102M (antibody, V domains shown)
VH: B1 VH with L102M
VL: B1 VL
notes: CPE single point mutant
B19: HC-H100D (antibody, V domains shown)
VH: B1 VH with H100D, L102E
VL: B1 VL
notes: CPE single point mutant
B20: HC-H100R (antibody, V domains shown)
VH: B1 VH with H100R, L102E
VL: B1 VL
notes: CPE single point mutant
B21: HC-B102G (antibody, V domains shown)
VH: B1 VH with L102G
VL: B1 VL
notes: as for B3
B22: HC-B102D (antibody, V domains shown)
VH: B1 VH with L102D
VL: B1 VL
notes: as for B3
B23: HC-P053N (antibody, V domains shown)
VH: B1 VH with P53N, L102E
VL: B1 VL
notes: CPE single point mutant
B24: HC-N035I (antibody, V domains shown)
VH: B1 VH with N35I, L102E
VL: B1 VL
notes: CPE single point mutant
B25: HC-B102A (antibody, V domains shown)
VH: B1 VH with L102A
VL: B1 VL
notes: as for B3
B26: HC-B102H (antibody, V domains shown)
VH: B1 VH with L102H
VL: B1 VL
notes: as for B3

The binders below were run against T1, Ax1 protein, extracellular domain (assay: ELISA, mutant diluted 1:3).
Text: (§1) The DNA encoding the wild-type antibody was evolved to generate a mutant antibody library using Comprehensive Positional Evolution (CPE), which each position in the template antibody is randomized one at a time. Each mutant antibody in the library has only one single point mutation. The mutant antibodies in the library were generated by simultaneously screening for selective binding affinity to Ax1 at pH 6.0 over pH 7.4 by ELISA. Two mutant antibody dilutions were used: 1:3 and 1:9 dilutions.

Affinity ELISA CPE mutant ratio (1:3, pH 6.0/7.4) | Binder
3.27 | B1
2.61 | B2
2.02 | B3
1.93 | B4
2.36 | B5
21.5 | B6
1.88 | B7
2.16 | B8
3.46 | B9
3.9 | B10
2.43 | B11
1.52 | B12
30.5 | B13
1.02 | B14
3.39 | B15
20.6 | B16
2.58 | B17
2.08 | B18
2.42 | B19
1.88 | B20
1.8 | B21
2.67 | B22
1.4 | B23
2.81 | B24
1.53 | B25
2.08 | B26

The binders below were run against T1, Ax1 protein, extracellular domain (assay: ELISA, mutant diluted 1:9).
Text: as §1

Affinity ELISA CPE mutant ratio (1:9, pH 6.0/7.4) | Binder
2.7 | B1
1.99 | B2
1.7 | B3
2.51 | B4
2.64 | B5
1.61 | B6
1.36 | B7
1.36 | B8
4.02 | B9
4.54 | B10
2.8 | B11
2.2 | B12
2.06 | B13
1.93 | B14
2.51 | B15
1.09 | B16
1.18 | B17
2.36 | B18
3.09 | B19
2.51 | B20
2.68 | B21
2.85 | B22
1.89 | B23
1.12 | B24
1.69 | B25
2.31 | B26

— patent US20240199746A1 (published 2024)
